In US20260015399A1 (Boehringer Ingelheim, published 2026):
*1 amine or outer side, *2 acyl side, *3 side chain or, on linkers, in order; H or OH if unused. Side-chain parts run from the residue outwards. The star is where a group is joined. C18 diacid = O=C(O)CCCCCCCCCCCCCCCCC(=O)*; γGlu = O=C(O)[C@H](CCC(=O)[*:2])N[*:1]; Isovaleryl = CC(C)CC(=O)*; Ahx = NCCCCCC(=O)O

T1: human NPY5 receptor (human, UniProt Q15761 1-445)
T1 sequence (looked up): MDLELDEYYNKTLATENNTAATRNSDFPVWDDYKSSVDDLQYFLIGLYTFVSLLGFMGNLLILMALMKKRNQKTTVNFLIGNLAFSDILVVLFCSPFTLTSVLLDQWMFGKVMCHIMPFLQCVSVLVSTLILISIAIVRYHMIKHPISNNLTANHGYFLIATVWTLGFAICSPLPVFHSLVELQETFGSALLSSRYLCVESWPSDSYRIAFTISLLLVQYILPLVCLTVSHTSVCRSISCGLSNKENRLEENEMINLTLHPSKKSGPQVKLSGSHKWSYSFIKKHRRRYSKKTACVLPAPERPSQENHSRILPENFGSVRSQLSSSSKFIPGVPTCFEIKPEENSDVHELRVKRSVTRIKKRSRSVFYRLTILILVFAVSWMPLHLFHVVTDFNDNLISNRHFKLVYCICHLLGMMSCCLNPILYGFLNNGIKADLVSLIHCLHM

T2: human NPY2 receptor (human, UniProt P49146 1-381)
T2 sequence (looked up): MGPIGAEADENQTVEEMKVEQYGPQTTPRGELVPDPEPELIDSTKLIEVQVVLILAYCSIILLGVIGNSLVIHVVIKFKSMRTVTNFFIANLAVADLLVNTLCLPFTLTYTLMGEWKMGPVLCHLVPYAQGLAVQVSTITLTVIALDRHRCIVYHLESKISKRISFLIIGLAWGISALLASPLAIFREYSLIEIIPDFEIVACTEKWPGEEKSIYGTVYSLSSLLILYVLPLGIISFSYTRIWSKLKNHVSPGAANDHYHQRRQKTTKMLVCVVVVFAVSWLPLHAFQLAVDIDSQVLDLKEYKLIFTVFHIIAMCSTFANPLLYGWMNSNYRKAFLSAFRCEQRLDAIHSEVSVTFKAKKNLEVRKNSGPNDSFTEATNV


Assays:
human NPY5 receptor = molecular target: T1, human NPY5 receptor; assay: cell-based or functional assay
human NPY2 receptor [1] = molecular target: T2, human NPY2 receptor; assay: cell-based or functional assay
human NPY2 receptor [2] = molecular target: T2, human NPY2 receptor; assay: RLB: displacement of 125I-PYY(1-36) from hNPY2R membranes

Row | Binder | EC50, HTRF cAMP Gi assay (human NPY5 receptor) [nM] | EC50, HTRF cAMP Gi assay (human NPY2 receptor [1]) [nM] | Ki (human NPY2 receptor [2]) [nM]
1 | Isovaleryl-APEK([Ahx-γGlu-C18 diacid])PEEDASPEEIQRYYVELRHYYNWLTRQRY-NH2 (SMILES CC[C@H](C)[C@H](NC(=O)[C@H](CCC(=O)O)NC(=O)[C@H](CCC(=O)O)NC(=O)[C@@H]1CCCN1C(=O)[C@H](CO)NC(=O)[C@H](C)NC(=O)[C@H](CC(=O)O)NC(=O)[C@H](CCC(=O)O)NC(=O)[C@H](CCC(=O)O)NC(=O)[C@@H]1CCCN1C(=O)[C@H](CCCCNC(=O)CCCCCNC(=O)CC[C@H](NC(=O)CCCCCCCCCCCCCCCCC(=O)O)C(=O)O)NC(=O)[C@H](CCC(=O)O)NC(=O)[C@@H]1CCCN1C(=O)[C@H](C)NC(=O)CC(C)C)C(=O)N[C@@H](CCC(N)=O)C(=O)N[C@@H](CCCNC(=N)N)C(=O)N[C@@H](Cc1ccc(O)cc1)C(=O)N[C@@H](Cc1ccc(O)cc1)C(=O)N[C@H](C(=O)N[C@@H](CCC(=O)O)C(=O)N[C@@H](CC(C)C)C(=O)N[C@@H](CCCNC(=N)N)C(=O)N[C@@H](Cc1c[nH]cn1)C(=O)N[C@@H](Cc1ccc(O)cc1)C(=O)N[C@@H](Cc1ccc(O)cc1)C(=O)N[C@@H](CC(N)=O)C(=O)N[C@@H](Cc1c[nH]c2ccccc12)C(=O)N[C@@H](CC(C)C)C(=O)N[C@H](C(=O)N[C@@H](CCCNC(=N)N)C(=O)N[C@@H](CCC(N)=O)C(=O)N[C@@H](CCCNC(=N)N)C(=O)N[C@@H](Cc1ccc(O)cc1)C(N)=O)[C@@H](C)O)C(C)C) [Compound 52] | > 5000 | 0.176 | 2.39
2 | Isovaleryl-APEK([Ahx-γGlu-C18 diacid])PEEDAEPEELQRYYTSLRHYYHWLTRQRY-NH2 (SMILES CC(C)CC(=O)N[C@@H](C)C(=O)N1CCC[C@H]1C(=O)N[C@@H](CCC(=O)O)C(=O)N[C@@H](CCCCNC(=O)CCCCCNC(=O)CC[C@H](NC(=O)CCCCCCCCCCCCCCCCC(=O)O)C(=O)O)C(=O)N1CCC[C@H]1C(=O)N[C@@H](CCC(=O)O)C(=O)N[C@@H](CCC(=O)O)C(=O)N[C@@H](CC(=O)O)C(=O)N[C@@H](C)C(=O)N[C@@H](CCC(=O)O)C(=O)N1CCC[C@H]1C(=O)N[C@@H](CCC(=O)O)C(=O)N[C@@H](CCC(=O)O)C(=O)N[C@@H](CC(C)C)C(=O)N[C@@H](CCC(N)=O)C(=O)N[C@@H](CCCNC(=N)N)C(=O)N[C@@H](Cc1ccc(O)cc1)C(=O)N[C@@H](Cc1ccc(O)cc1)C(=O)N[C@H](C(=O)N[C@@H](CO)C(=O)N[C@@H](CC(C)C)C(=O)N[C@@H](CCCNC(=N)N)C(=O)N[C@@H](Cc1c[nH]cn1)C(=O)N[C@@H](Cc1ccc(O)cc1)C(=O)N[C@@H](Cc1ccc(O)cc1)C(=O)N[C@@H](Cc1c[nH]cn1)C(=O)N[C@@H](Cc1c[nH]c2ccccc12)C(=O)N[C@@H](CC(C)C)C(=O)N[C@H](C(=O)N[C@@H](CCCNC(=N)N)C(=O)N[C@@H](CCC(N)=O)C(=O)N[C@@H](CCCNC(=N)N)C(=O)N[C@@H](Cc1ccc(O)cc1)C(N)=O)[C@@H](C)O)[C@@H](C)O) [Compound 91] | 5000 | 0.219 | 4.64
3 | Isovaleryl-APEK([Ahx-γGlu-C18 diacid])PEEDASPEELQRYYVSLRHYYNWLTRQRY-NH2 (SMILES CC(C)CC(=O)N[C@@H](C)C(=O)N1CCC[C@H]1C(=O)N[C@@H](CCC(=O)O)C(=O)N[C@@H](CCCCNC(=O)CCCCCNC(=O)CC[C@H](NC(=O)CCCCCCCCCCCCCCCCC(=O)O)C(=O)O)C(=O)N1CCC[C@H]1C(=O)N[C@@H](CCC(=O)O)C(=O)N[C@@H](CCC(=O)O)C(=O)N[C@@H](CC(=O)O)C(=O)N[C@@H](C)C(=O)N[C@@H](CO)C(=O)N1CCC[C@H]1C(=O)N[C@@H](CCC(=O)O)C(=O)N[C@@H](CCC(=O)O)C(=O)N[C@@H](CC(C)C)C(=O)N[C@@H](CCC(N)=O)C(=O)N[C@@H](CCCNC(=N)N)C(=O)N[C@@H](Cc1ccc(O)cc1)C(=O)N[C@@H](Cc1ccc(O)cc1)C(=O)N[C@H](C(=O)N[C@@H](CO)C(=O)N[C@@H](CC(C)C)C(=O)N[C@@H](CCCNC(=N)N)C(=O)N[C@@H](Cc1c[nH]cn1)C(=O)N[C@@H](Cc1ccc(O)cc1)C(=O)N[C@@H](Cc1ccc(O)cc1)C(=O)N[C@@H](CC(N)=O)C(=O)N[C@@H](Cc1c[nH]c2ccccc12)C(=O)N[C@@H](CC(C)C)C(=O)N[C@H](C(=O)N[C@@H](CCCNC(=N)N)C(=O)N[C@@H](CCC(N)=O)C(=O)N[C@@H](CCCNC(=N)N)C(=O)N[C@@H](Cc1ccc(O)cc1)C(N)=O)[C@@H](C)O)C(C)C) [Compound 79] | > 5000 | 0.076 | 1.54
4 | Isovaleryl-APEK([Ahx-γGlu-C18 diacid])PEADAEPEELQRYYVSLRHYYNWLTRQRY-NH2 (SMILES CC(C)CC(=O)N[C@@H](C)C(=O)N1CCC[C@H]1C(=O)N[C@@H](CCC(=O)O)C(=O)N[C@@H](CCCCNC(=O)CCCCCNC(=O)CC[C@H](NC(=O)CCCCCCCCCCCCCCCCC(=O)O)C(=O)O)C(=O)N1CCC[C@H]1C(=O)N[C@@H](CCC(=O)O)C(=O)N[C@@H](C)C(=O)N[C@@H](CC(=O)O)C(=O)N[C@@H](C)C(=O)N[C@@H](CCC(=O)O)C(=O)N1CCC[C@H]1C(=O)N[C@@H](CCC(=O)O)C(=O)N[C@@H](CCC(=O)O)C(=O)N[C@@H](CC(C)C)C(=O)N[C@@H](CCC(N)=O)C(=O)N[C@@H](CCCNC(=N)N)C(=O)N[C@@H](Cc1ccc(O)cc1)C(=O)N[C@@H](Cc1ccc(O)cc1)C(=O)N[C@H](C(=O)N[C@@H](CO)C(=O)N[C@@H](CC(C)C)C(=O)N[C@@H](CCCNC(=N)N)C(=O)N[C@@H](Cc1c[nH]cn1)C(=O)N[C@@H](Cc1ccc(O)cc1)C(=O)N[C@@H](Cc1ccc(O)cc1)C(=O)N[C@@H](CC(N)=O)C(=O)N[C@@H](Cc1c[nH]c2ccccc12)C(=O)N[C@@H](CC(C)C)C(=O)N[C@H](C(=O)N[C@@H](CCCNC(=N)N)C(=O)N[C@@H](CCC(N)=O)C(=O)N[C@@H](CCCNC(=N)N)C(=O)N[C@@H](Cc1ccc(O)cc1)C(N)=O)[C@@H](C)O)C(C)C) [Compound 72] | > 5000 | 0.197 | 2.79
5 | Isovaleryl-APEK([Ahx-γGlu-C18 diacid])PEEDASPEELQRYYISLRHYYNWLTRQRY-NH2 (SMILES CC[C@H](C)[C@H](NC(=O)[C@H](Cc1ccc(O)cc1)NC(=O)[C@H](Cc1ccc(O)cc1)NC(=O)[C@H](CCCNC(=N)N)NC(=O)[C@H](CCC(N)=O)NC(=O)[C@H](CC(C)C)NC(=O)[C@H](CCC(=O)O)NC(=O)[C@H](CCC(=O)O)NC(=O)[C@@H]1CCCN1C(=O)[C@H](CO)NC(=O)[C@H](C)NC(=O)[C@H](CC(=O)O)NC(=O)[C@H](CCC(=O)O)NC(=O)[C@H](CCC(=O)O)NC(=O)[C@@H]1CCCN1C(=O)[C@H](CCCCNC(=O)CCCCCNC(=O)CC[C@H](NC(=O)CCCCCCCCCCCCCCCCC(=O)O)C(=O)O)NC(=O)[C@H](CCC(=O)O)NC(=O)[C@@H]1CCCN1C(=O)[C@H](C)NC(=O)CC(C)C)C(=O)N[C@@H](CO)C(=O)N[C@@H](CC(C)C)C(=O)N[C@@H](CCCNC(=N)N)C(=O)N[C@@H](Cc1c[nH]cn1)C(=O)N[C@@H](Cc1ccc(O)cc1)C(=O)N[C@@H](Cc1ccc(O)cc1)C(=O)N[C@@H](CC(N)=O)C(=O)N[C@@H](Cc1c[nH]c2ccccc12)C(=O)N[C@@H](CC(C)C)C(=O)N[C@H](C(=O)N[C@@H](CCCNC(=N)N)C(=O)N[C@@H](CCC(N)=O)C(=O)N[C@@H](CCCNC(=N)N)C(=O)N[C@@H](Cc1ccc(O)cc1)C(N)=O)[C@@H](C)O) [Compound 76] | > 5000 | 0.172 | 2.68
